This note sets out measurements from paper PMC2819549.

The target in experiment [1] is human cytochrome P450 3A4 (CYP3A4), wild type, His-tagged (human) (UniProt P08684). The experiment in a line: UV-Vis absorbance.
The target is the same in experiment [2].
The target is the same in experiment [3]. The experiment in a line: UV-Vis absorbance. This is another data set of the same source.
The target is the same in experiment [4]. The experiment in a line: UV-Vis absorbance. The source holds these as a separate data set.

One may read the Kd as the equilibrium constant for the complex coming apart. As a reminder, the stoichiometry N is a count of units in the complex or per binding partner.

Read-outs that look alike come from different tables or passages of the source.

In experiment [1], “flavin domain of cytochrome P450BM-3 from Bacillus megaterium (BMR) (domain or fragment)” had a Kd of 140 nM and a stoichiometry N of 1. For the same substance, in experiment [2], the total reducibility of CYP3A4 by BMR; CYP3A4-ND, with 1-PB was determined as 91%; the total reducibility of CYP3A4 by BMR; CYP3A4-ND, with ANF was 79%; the total reducibility of CYP3A4 by BMR; proteoliposomes LPS-76, no substrate came out at 55%; the total reducibility of CYP3A4 by BMR; proteoliposomes LPS-76, with ANF is 47%. In addition, in experiment [2], the total reducibility of CYP3A4 by BMR; proteoliposomes LPS-910, no substrate was 83% and the total reducibility of CYP3A4 by BMR; proteoliposomes LPS-910, with ANF was determined as 85%. In experiment [3], the stoichiometry N is 1. In experiment [4], this substance registered a Kd of 100 nM.
